These results are taken from patent US20250026797A1 (GOVERNMENT OF THE UNITED STATES OF AMERICA AS REPRESENTED …, published 2025).

No end group written: not given here. *: point of attachment. Biotin = O=C1N[C@H]2[C@H](CS[C@H]2CCCCC(=O)*)N1 Bounds are passed on as bounds.

Assay [1] deals with T1, PGVVKSK(biotin) peptide (PGXVKSK(biotin), X = Val).
T1 construct: also called Val at P3
T1 peptide: PGVVKSK(Biotin)
The assay is described as follows: BLI, biotinylated peptide on streptavidin biosensor. As for the experimental part:
(§1) The measurements were analyzed with instrument software Data Analysis HT (Version 12).
(§2) Previous works on GID4, as well as other N-degron proteins reported significant impact of the second position of the peptide (P2) on binding affinity. The impact of the P2 on the top variants were evaluated with BLI assay using PGLVKSK(biotin) and PXLVKSK(biotin) peptides, where X is Arg, Asp, Val, Phe, Ser, Met, or Pro. […] S283F variant and, especially, A252V variant retain higher level of BLI response compared to wild-type when Val or Ser is at P2. S283F variant retains 40% of signal with Ser at P2 and A252V variant retains >65% with Val and Ser. This retention of binding response with Val and Ser at P2, relative to Gly at P2, is maintained with the triple mutant the double mutants, with over 58% of signal retained for these variants when Ser is at P2. The A252V-S283F mutant and the triple mutant retained >55% of signal when Val is at P2.
(§3) Due to the depth of the binding pocket of GID4, the binding is impacted by the identity of residues in the target peptide beyond P2. […] Similar to evaluating the impact of P2, the impact of P3 was evaluated via BLI with PGLVKSK(biotin) peptide and PGXVKSK(biotin) peptides, where X is Arg, Asp, Val, Phe, Ser, Met, or Pro. […] Asp and Pro are particularly not favorable at P3, as almost no BLI signal was measured. The BLI response of variants with the rest of the peptides, however, increased.
In general terms: In BLI a coated tip is dipped into the sample, and binding shifts an interference pattern.

In assay [2] the target is T2, VGLVKSK(biotin) peptide (XGLVKSK(biotin), X = Val).
T2 construct: also called Nt-Val peptide
T2 peptide: VGLVKSK(Biotin)
As to the kind of experiment: BLI, biotinylated peptide on streptavidin biosensor, 10 µmol/L protein. As for the experimental part:
(§4) High-throughput kinetic measurements were taken using Octet Red96e system with Octet Streptavidin (SA) Biosensors in 96-well format. The highest concentration of protein was prepared by mixing 25% of the total volume with 0.4% BSA in dialysis buffer (1×PBS) and completing subsequent dilutions with 0.1% BSA in dialysis buffer. The SA biosensors were hydrated for 10 min in the dialysis buffer with 0.1% BSA then loaded with NH₂-XXXVKSK(biotin)-COOH (where X are residues specified in the experiment and figures) by moving the sensors into wells with 10 μmol/L of the biotinylated peptide and incubating for 2 min. Unbound peptide was removed by incubating in the dialysis buffer with 0.1% BSA for 2 min in the next wells. The association of GID4 wild-type and variants were then measured by incubating the biosensors in wells with the proteins for 10 min and then dissociation measured by moving the sensors into new wells with dialysis buffer with 0.1% BSA for another 10 min. All wells contained 200 μL of specified solution. The measurements were analyzed with instrument software Data Analysis HT (Version 12).
(§5) The association and dissociation of the GID4 wild-type and the six variants to the PGLVKSK(biotin) peptide were evaluated using BLI. BLI is an optical technique that can measure interaction between protein in solution ad peptide immobilized on the biosensor tip. […] The S283F variant has an apparent faster dissociation rate compared to the other singe mutation variants. The apparent faster dissociation rate due to S283F mutation is also present in A252V-S283F mutant, when compared to the A252V-S253T mutant. […] The increase in the BLI response and shift in dissociation rate can be beneficial as an Nt-Pro recognizing protein; differences in off-rate can be used as method to distinguish different Nt-amino acids.

Assay [3] deals with T3, FGLVKSK(biotin) peptide (XGLVKSK(biotin), X = Phe).
T3 construct: also called Nt-Phe peptide
T3 peptide: FGLVKSK(Biotin)
Described as above. As for the experimental part: as §4, §5

The target of assay [4] is T4, MGLVKSK(biotin) peptide (XGLVKSK(biotin), X = Met).
T4 construct: also called Nt-Met peptide
T4 peptide: MGLVKSK(Biotin)
The description is as above. The method, then:
as §4, §5

Assay [5] concerns the target T5, NH2-PGLVKSK(biotin)-COOH peptide (SMILES CC(C)C[C@H](NC(=O)CNC(=O)[C@@H]1CCCN1)C(=O)N[C@H](C(=O)N[C@@H](CCCCN)C(=O)N[C@@H](CO)C(=O)N[C@@H](CCCCNC(=O)CCCC[C@@H]1SC[C@@H]2NC(=O)N[C@@H]21)C(=O)O)C(C)C).
T5 construct: Immobilised on streptavidin biosensors in BLI; in solution in the yeast display sorts; also called Nt-Pro peptide; target peptide
T5 peptide: H-PGLVKSK(Biotin)-OH
The description is as above. The method, then: as §4, §5

Assay [6] has as its target T6, PGRVKSK(biotin) peptide (PGXVKSK(biotin), X = Arg).
T6 construct: also called Arg at P3
T6 peptide: PGRVKSK(Biotin)
The assay is described as follows: BLI, biotinylated peptide on streptavidin biosensor. The method, then:
as §1, §2, §3

Assay [7] has as its target T7, PVLVKSK(biotin) peptide (PXLVKSK(biotin), X = Val).
T7 construct: also called Val at P2
T7 peptide: PVLVKSK(Biotin)
The assay is described as above. As for the experimental part: as §1, §2, §3

Assay [8] has as its target T8, PGFVKSK(biotin) peptide (PGXVKSK(biotin), X = Phe).
T8 construct: also called Phe at P3
T8 peptide: PGFVKSK(Biotin)
The description is as above. As for the experimental part:
as §1, §2, §3

Assay [9] has as its target T9, PGSVKSK(biotin) peptide (PGXVKSK(biotin), X = Ser).
T9 construct: also called Ser at P3
T9 peptide: PGSVKSK(Biotin)
The description is as above. As for the experimental part: as §1, §2, §3

Assay [10] concerns the target T10, PGMVKSK(biotin) peptide (PGXVKSK(biotin), X = Met).
T10 construct: also called Met at P3
T10 peptide: PGMVKSK(Biotin)
The description is as above. The method, then:
as §1, §2, §3

Assay [11] deals with T11, PSLVKSK(biotin) peptide (PXLVKSK(biotin), X = Ser).
T11 construct: also called Ser at P2
T11 peptide: PSLVKSK(Biotin)
The assay is described as above. The method, then:
as §1, §2, §3

B1: wild-type human GID4 fragment (residues 116-300), purified with N-terminal His-tag (other)
chain: GVATSLLYSGSKFRGHQKSKGNSYDVEVVLQHVDTGNSYLCGYLKIKGLTEEYPTLTTFFEGEIISKKHPFLTRKWDADEDVDRKHWGKFLAFYQYAKSFNSDDFDYEELKNGDYVFMRWKEQFLVPDHTIKDISGASFAGFYYICFQKSAASIEGYYYHRSSEWYQSLNLTHVPEHSAPIYEFR
notes: Expressed in E. coli BL21(DE3), nickel-column purified; also called wild-type GID4; native GID4; not shown: N-terminal six-histidine tag and TEV protease recognition site from the pET21(+) construct
For B1, the “% of steady-state BLI response relative to PGLVKSK(biotin)” value in assay [1] is more than 50%.

B2: GID4 A252V variant (residues 116-300), purified with N-terminal His-tag (designed binder)
chain: GVATSLLYSGSKFRGHQKSKGNSYDVEVVLQHVDTGNSYLCGYLKIKGLTEEYPTLTTFFEGEIISKKHPFLTRKWDADEDVDRKHWGKFLAFYQYAKSFNSDDFDYEELKNGDYVFMRWKEQFLVPDHTIKDISGVSFAGFYYICFQKSAASIEGYYYHRSSEWYQSLNLTHVPEHSAPIYEFR
notes: not shown: N-terminal six-histidine tag and TEV protease recognition site from the pET21(+) construct
Turning to B2, the binding result in [2], in [3] and in assay [4] was “binds” in each case. Besides, the “fold steady-state BLI response against wild-type GID4” value in [5] came to 1.7 fold. The “% of steady-state BLI response relative to PGLVKSK(biotin)” value in assay [6], in [8], in assay [1] and in assay [10] was more than 60% each time. Besides, the “% of steady-state BLI signal retained relative to PGLVKSK(biotin)” value in assay [7] and in assay [11] was more than 65% throughout. The “% of binding response relative to PGLVKSK(biotin)” value in assay [9] was less than 31%.

B3: GID4 A252V-S283F double mutant variant (residues 116-300), purified with N-terminal His-tag (designed binder)
chain: GVATSLLYSGSKFRGHQKSKGNSYDVEVVLQHVDTGNSYLCGYLKIKGLTEEYPTLTTFFEGEIISKKHPFLTRKWDADEDVDRKHWGKFLAFYQYAKSFNSDDFDYEELKNGDYVFMRWKEQFLVPDHTIKDISGVSFAGFYYICFQKSAASIEGYYYHRSSEWYQFLNLTHVPEHSAPIYEFR
notes: also called A252V-S283F mutant; not shown: N-terminal six-histidine tag and TEV protease recognition site from the pET21(+) construct
Consider B3, for which the binding result in assay [2], in assay [3], in assay [4] and in assay [5] was “binds” in each case. Besides, the “% of steady-state BLI response relative to PGLVKSK(biotin)” value in assay [6] was more than 69%; in assay [8], more than 69%; in assay [9], more than 51%; in assay [1] it was more than 69%; in assay [10], more than 69%. Further, the “% of steady-state BLI signal retained relative to PGLVKSK(biotin)” value in assay [7] was more than 55%; in assay [11], more than 58%.

B4: GID4 A252V-S253T double mutant variant (residues 116-300), purified with N-terminal His-tag (designed binder)
chain: GVATSLLYSGSKFRGHQKSKGNSYDVEVVLQHVDTGNSYLCGYLKIKGLTEEYPTLTTFFEGEIISKKHPFLTRKWDADEDVDRKHWGKFLAFYQYAKSFNSDDFDYEELKNGDYVFMRWKEQFLVPDHTIKDISGVTFAGFYYICFQKSAASIEGYYYHRSSEWYQSLNLTHVPEHSAPIYEFR
notes: also called A252V-S253T mutant; not shown: N-terminal six-histidine tag and TEV protease recognition site from the pET21(+) construct
In the case of B4, the binding result in [2], in assay [3], in assay [4], in assay [5] and in assay [7] was “binds” throughout. Further, the “% of steady-state BLI response relative to PGLVKSK(biotin)” value in assay [6] was more than 69%; in assay [8] it was more than 69%; in assay [9], more than 51%; in assay [1], more than 69%; in assay [10], more than 69%. For the same molecule, the “% of steady-state BLI signal retained relative to PGLVKSK(biotin)” value in [11] is more than 58%.

B5: GID4 A252V-S253T-S283F triple mutant variant (residues 116-300), purified with N-terminal His-tag (designed binder)
chain: GVATSLLYSGSKFRGHQKSKGNSYDVEVVLQHVDTGNSYLCGYLKIKGLTEEYPTLTTFFEGEIISKKHPFLTRKWDADEDVDRKHWGKFLAFYQYAKSFNSDDFDYEELKNGDYVFMRWKEQFLVPDHTIKDISGVTFAGFYYICFQKSAASIEGYYYHRSSEWYQFLNLTHVPEHSAPIYEFR
notes: as for B2
As for B5, the binding result in assay [2], in assay [3] and in assay [4] was “binds” throughout. Besides, in assay [5], the “fold steady-state BLI response against wild-type GID4” value was more than 2.3 fold. The “% of steady-state BLI response relative to PGLVKSK(biotin)” value in [6] was more than 69%; in [8], more than 69%; in assay [9], more than 51%; in assay [1], more than 69%; in [10] it was more than 69%. For the same molecule, the “% of steady-state BLI signal retained relative to PGLVKSK(biotin)” value is more than 55% in [7] and more than 58% in [11].

B6: GID4 S253T variant (residues 116-300), purified with N-terminal His-tag (designed binder)
chain: GVATSLLYSGSKFRGHQKSKGNSYDVEVVLQHVDTGNSYLCGYLKIKGLTEEYPTLTTFFEGEIISKKHPFLTRKWDADEDVDRKHWGKFLAFYQYAKSFNSDDFDYEELKNGDYVFMRWKEQFLVPDHTIKDISGATFAGFYYICFQKSAASIEGYYYHRSSEWYQSLNLTHVPEHSAPIYEFR
notes: as for B2
Consider B6, for which the binding result in [2], in assay [3], in assay [4], in assay [5], in [6] and in assay [8] was “binds” each time. The binding result in assay [1] and in assay [10] was “binds” throughout. Also, in assay [9], the “% of binding response relative to PGLVKSK(biotin)” value is less than 31%.

B7: GID4 S283F variant (residues 116-300), purified with N-terminal His-tag (designed binder)
chain: GVATSLLYSGSKFRGHQKSKGNSYDVEVVLQHVDTGNSYLCGYLKIKGLTEEYPTLTTFFEGEIISKKHPFLTRKWDADEDVDRKHWGKFLAFYQYAKSFNSDDFDYEELKNGDYVFMRWKEQFLVPDHTIKDISGASFAGFYYICFQKSAASIEGYYYHRSSEWYQFLNLTHVPEHSAPIYEFR
notes: as for B2
For the molecule B7, the binding result in assay [2], in assay [3], in assay [4], in assay [5], in [6] and in [7] was “binds” in each case. Further, the binding result in assay [8], in assay [1] and in [10] was “binds” in each case. Moreover, the “% of binding response relative to PGLVKSK(biotin)” value in [9] was less than 31%. The “% of steady-state BLI signal retained relative to PGLVKSK(biotin)” value in [11] was found to be 40%.
